T1: NHS-Rhodamine labelled recombinant Tma17p (γ-subunit)
T1 sequence: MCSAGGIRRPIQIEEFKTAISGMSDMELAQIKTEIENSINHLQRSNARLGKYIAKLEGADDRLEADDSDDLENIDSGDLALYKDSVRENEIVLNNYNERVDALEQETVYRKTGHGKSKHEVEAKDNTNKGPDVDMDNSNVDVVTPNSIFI


Experiments:
[1] = test system: T1, NHS-Rhodamine labelled recombinant Tma17p (γ-subunit); assay: titration of NHS-Rhodamine labelled γ-subunit against ΔTma17p-FAS, native agarose gel, fluorescence of FAS-bound Tma17p quantified
[2] = biological target: Saccharomyces cerevisiae type I fatty acid synthase (α6β6, 2.6 MDa) without the γ-subunit (Saccharomyces cerevisiae) (UniProt P19097); assay: cell-based or functional assay
Sequence of UniProt P19097 (P19097 whole entry, chain 1 of 2): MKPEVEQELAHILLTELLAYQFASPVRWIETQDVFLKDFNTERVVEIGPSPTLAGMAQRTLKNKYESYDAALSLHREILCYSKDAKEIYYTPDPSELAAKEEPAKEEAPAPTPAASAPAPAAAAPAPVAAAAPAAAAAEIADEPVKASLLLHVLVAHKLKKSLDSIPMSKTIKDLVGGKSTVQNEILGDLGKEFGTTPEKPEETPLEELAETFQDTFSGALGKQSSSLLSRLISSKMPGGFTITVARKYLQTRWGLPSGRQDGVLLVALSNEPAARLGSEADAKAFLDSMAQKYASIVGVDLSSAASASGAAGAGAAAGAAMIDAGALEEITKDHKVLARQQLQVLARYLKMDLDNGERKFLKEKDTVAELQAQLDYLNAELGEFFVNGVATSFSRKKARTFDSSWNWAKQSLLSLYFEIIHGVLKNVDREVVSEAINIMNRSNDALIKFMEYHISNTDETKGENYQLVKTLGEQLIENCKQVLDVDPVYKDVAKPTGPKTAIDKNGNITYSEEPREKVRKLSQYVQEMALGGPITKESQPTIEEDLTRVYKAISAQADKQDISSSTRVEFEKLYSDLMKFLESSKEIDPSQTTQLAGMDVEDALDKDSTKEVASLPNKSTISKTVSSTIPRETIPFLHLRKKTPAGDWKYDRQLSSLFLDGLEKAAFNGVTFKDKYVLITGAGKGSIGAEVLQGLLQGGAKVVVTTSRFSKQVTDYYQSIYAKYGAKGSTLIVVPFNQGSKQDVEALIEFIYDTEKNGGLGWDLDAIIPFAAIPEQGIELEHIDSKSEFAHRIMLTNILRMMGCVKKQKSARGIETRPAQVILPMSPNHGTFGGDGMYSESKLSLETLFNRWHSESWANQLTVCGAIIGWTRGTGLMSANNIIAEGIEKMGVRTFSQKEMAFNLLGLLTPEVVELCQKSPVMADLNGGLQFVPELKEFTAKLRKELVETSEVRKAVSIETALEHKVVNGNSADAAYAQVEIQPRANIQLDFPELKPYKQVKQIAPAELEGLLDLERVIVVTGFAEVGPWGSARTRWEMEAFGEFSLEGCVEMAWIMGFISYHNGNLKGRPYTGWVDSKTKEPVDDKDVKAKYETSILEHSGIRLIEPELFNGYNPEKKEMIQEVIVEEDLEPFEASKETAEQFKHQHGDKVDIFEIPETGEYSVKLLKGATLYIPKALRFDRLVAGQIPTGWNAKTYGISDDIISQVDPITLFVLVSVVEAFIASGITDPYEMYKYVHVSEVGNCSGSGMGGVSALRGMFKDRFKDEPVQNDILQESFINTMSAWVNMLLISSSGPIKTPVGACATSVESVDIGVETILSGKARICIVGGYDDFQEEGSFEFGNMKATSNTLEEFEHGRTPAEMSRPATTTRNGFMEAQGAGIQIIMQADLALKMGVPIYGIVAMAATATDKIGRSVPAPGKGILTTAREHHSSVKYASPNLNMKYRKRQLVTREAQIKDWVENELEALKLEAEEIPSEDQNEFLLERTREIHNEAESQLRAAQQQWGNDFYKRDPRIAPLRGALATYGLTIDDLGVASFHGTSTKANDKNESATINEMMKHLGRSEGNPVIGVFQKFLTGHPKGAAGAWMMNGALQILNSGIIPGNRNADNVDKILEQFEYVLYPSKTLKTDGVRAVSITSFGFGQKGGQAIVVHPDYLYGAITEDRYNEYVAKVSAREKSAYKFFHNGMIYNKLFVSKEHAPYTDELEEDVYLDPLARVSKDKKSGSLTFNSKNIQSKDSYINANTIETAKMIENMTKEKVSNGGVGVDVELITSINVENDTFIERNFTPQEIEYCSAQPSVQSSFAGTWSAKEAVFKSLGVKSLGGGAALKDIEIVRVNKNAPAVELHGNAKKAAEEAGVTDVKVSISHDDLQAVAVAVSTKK
Sequence of UniProt P19097 (P07149 whole entry, chain 2 of 2, further chain): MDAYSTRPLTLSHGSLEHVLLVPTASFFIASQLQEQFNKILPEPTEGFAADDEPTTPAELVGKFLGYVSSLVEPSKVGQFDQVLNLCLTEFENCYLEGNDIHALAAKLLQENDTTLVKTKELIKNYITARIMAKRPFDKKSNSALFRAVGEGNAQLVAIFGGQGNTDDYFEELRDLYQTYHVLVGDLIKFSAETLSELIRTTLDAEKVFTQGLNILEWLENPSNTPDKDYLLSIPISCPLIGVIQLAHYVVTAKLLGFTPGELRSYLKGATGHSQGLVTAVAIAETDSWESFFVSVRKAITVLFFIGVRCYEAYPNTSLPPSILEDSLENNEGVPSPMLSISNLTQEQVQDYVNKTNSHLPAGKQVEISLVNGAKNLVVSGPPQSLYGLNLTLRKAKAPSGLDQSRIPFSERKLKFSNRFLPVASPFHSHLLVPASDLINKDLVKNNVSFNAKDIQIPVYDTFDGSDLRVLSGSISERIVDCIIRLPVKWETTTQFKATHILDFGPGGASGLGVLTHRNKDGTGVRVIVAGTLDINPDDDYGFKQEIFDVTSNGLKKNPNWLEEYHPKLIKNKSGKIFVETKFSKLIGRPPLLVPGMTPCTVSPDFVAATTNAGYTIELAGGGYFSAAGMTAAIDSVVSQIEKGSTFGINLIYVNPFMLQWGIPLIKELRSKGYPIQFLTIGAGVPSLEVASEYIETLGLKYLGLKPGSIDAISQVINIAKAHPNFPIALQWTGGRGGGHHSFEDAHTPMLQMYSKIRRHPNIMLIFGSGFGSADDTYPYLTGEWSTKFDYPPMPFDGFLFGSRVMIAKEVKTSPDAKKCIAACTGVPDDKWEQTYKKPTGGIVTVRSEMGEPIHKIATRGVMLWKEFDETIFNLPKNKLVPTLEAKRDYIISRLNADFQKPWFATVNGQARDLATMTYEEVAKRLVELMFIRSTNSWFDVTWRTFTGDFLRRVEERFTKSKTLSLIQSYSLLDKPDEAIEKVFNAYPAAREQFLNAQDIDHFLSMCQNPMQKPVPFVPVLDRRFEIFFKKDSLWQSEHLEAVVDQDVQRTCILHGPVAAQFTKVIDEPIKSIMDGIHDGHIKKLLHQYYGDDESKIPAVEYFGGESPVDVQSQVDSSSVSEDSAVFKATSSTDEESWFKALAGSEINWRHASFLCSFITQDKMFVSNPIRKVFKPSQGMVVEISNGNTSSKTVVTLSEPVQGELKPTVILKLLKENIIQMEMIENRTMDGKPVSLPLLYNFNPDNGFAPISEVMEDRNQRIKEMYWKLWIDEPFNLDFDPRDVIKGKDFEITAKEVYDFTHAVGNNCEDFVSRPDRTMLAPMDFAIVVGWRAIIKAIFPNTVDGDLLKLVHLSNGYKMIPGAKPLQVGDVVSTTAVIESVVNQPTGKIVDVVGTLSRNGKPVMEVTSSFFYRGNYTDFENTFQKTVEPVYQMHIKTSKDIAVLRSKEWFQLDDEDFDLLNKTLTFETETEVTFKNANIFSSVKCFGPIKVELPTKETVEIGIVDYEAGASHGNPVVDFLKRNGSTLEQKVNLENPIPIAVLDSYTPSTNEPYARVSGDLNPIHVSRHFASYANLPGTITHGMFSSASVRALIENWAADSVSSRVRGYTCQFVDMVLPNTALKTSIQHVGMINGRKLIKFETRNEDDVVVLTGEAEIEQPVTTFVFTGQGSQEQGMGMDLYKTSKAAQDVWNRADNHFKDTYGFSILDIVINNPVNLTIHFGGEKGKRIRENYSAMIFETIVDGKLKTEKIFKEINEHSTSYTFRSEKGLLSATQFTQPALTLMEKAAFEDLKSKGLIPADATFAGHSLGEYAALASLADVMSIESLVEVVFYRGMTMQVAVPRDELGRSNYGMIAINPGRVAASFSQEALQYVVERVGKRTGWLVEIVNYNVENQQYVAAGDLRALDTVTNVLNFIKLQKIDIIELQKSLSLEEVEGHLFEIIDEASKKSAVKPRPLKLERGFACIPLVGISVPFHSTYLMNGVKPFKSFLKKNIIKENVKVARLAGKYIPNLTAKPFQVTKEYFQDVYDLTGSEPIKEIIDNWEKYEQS

| KMapp for NADPH, steady-state kinetics of the FAS holoenzyme (saturating γ-subunit) [2] [µM] | fold decrease of affinity for acetyl-CoA, steady-state kinetics [2] [fold] | fold decrease of affinity for malonyl-CoA, steady-state kinetics [2] [fold] | fold reduction in the binding affinity for NADPH, steady-state kinetics [2] [fold] | percent of selected cryo-EM particles in the rotated state, at a 6-fold excess of the γ-subunit [2] [%] | percent of selected cryo-EM particles in the rotated state, at a 12-fold molar excess of the γ-subunit [2] [%] | Molecule | K0.5 (Hill equation) [1] |
| --- | --- | --- | --- | --- | --- | --- | --- |
|  |  |  |  |  |  | Saccharomyces cerevisiae type I fatty acid synthase (α6β6, 2.6 MDa) without the γ-subunit | K0.5=2.1±0.2 µM |
| 155 | 2 | 4 | 15 | 88 | 95 | Tma17p, the gamma-subunit of the yeast fatty acid synthase (TMA 17 molecule from Saccharomyces cerevisiae) (protein) MCSAGGIRRPIQIEEFKTAISGMSDMELAQIKTEIENSINHLQRSNARLGKYIAKLEGADDRLEADDSDDLENIDSGDLALYKDSVRENEIVLNNYNERVDALEQETVYRKTGHGKSKHEVEAKDNTNKGPDVDMDNSNVDVVTPNSIFI |  |

Reference: patent US20220154181A1
